According to publication PMC6043778, “Purification and Initial Characterization of 3-Hydroxybenzoate 6-Hydroxylase From a Halophilic Martelella Strain AD-3” (Frontiers in Microbiology, 2018):
Like-named read-outs stand apart in the source and are kept apart here.

T1: 3HB6H from strain AD-3 (3-hydroxybenzoate 6-hydroxylase; AZF01_02545) (Martelella sp. AD-3, UniProt Z9T156WZO1)
T1 construct: full-length, N-terminal His6 tag (pET28a, EcoRI/HindIII), E. coli BL21(DE3), Ni-NTA; about 46 kDa by SDS-PAGE, 90 kDa by Native-PAGE (probable dimer); FAD-containing
T1 sequence (Z9T156WZO1 1-403): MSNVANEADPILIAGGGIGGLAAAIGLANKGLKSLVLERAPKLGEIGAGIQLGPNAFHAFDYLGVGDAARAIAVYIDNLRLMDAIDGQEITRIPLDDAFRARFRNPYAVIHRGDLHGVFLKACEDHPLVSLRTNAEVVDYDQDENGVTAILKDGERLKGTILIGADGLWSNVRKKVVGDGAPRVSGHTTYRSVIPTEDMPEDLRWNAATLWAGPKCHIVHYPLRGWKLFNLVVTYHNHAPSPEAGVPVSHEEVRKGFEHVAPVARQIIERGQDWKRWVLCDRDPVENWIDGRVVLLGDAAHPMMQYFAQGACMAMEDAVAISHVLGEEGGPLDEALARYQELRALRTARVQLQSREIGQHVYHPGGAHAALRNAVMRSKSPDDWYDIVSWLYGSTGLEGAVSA


Key:
[1] = target: T1, 3HB6H from strain AD-3 (3-hydroxybenzoate 6-hydroxylase; AZF01_02545); test: NADH oxidation at […] nm, Lineweaver-Burk; format: biochemical; conditions: 50 mM potassium phosphate pH 8.0, 30°C
purified protein [2] = substrate: NC(=O)C1=CN([C@@H]2O[C@H](COP(=O)(O)OP(=O)(O)OC[C@H]3O[C@@H](n4cnc5c(N)ncnc54)[C@H](O)[C@@H]3O)[C@@H](O)[C@H]2O)C=CC1; test: purified protein; format: biochemical, Martelella sp. AD-3; conditions: 400 μM 3-hydroxybenzoate, 50 mM potassium phosphate pH 8.0, 30°C
purified protein [3] = substrate: O=C(O)c1cccc(O)c1; test: purified protein; format: biochemical, Martelella sp. AD-3; conditions: 400 μM NADH, 50 mM potassium phosphate pH 8.0, 30°C

Km ([1]; 400 μM NADH, read-out: 3HB / Km) [µM]	Km ([1]; 400 μM 3-hydroxybenzoate, read-out: NADH / Km) [µM]	Molecule	Km (purified protein [2]) [µM]	kcat (purified protein [2]) [s⁻¹]	kcat/Km (purified protein [2]) [M⁻¹ s⁻¹]	Km (purified protein [3]) [µM]	kcat (purified protein [3]) [s⁻¹]	kcat/Km (purified protein [3]) [M⁻¹ s⁻¹]
28.6 ± 7.3		O=C(O)c1cccc(O)c1 [3-hydroxybenzoate]						
	50 ± 9.7	NC(=O)C1=CN([C@@H]2O[C@H](COP(=O)(O)OP(=O)(O)OC[C@H]3O[C@@H](n4cnc5c(N)ncnc54)[C@H](O)[C@@H]3O)[C@@H](O)[C@H]2O)C=CC1 [NADH]						
		3HB6H from strain AD-3 (3-hydroxybenzoate 6-hydroxylase; AZF01_02545) (Martelella sp. AD-3) (protein, full-length, N-terminal His6 tag (pET28a, EcoRI/HindIII), E. coli BL21(DE3), Ni-NTA; about 46 kDa by SDS-PAGE, 90 kDa by Native-PAGE (probable dimer); FAD-containing) MSNVANEADPILIAGGGIGGLAAAIGLANKGLKSLVLERAPKLGEIGAGIQLGPNAFHAFDYLGVGDAARAIAVYIDNLRLMDAIDGQEITRIPLDDAFRARFRNPYAVIHRGDLHGVFLKACEDHPLVSLRTNAEVVDYDQDENGVTAILKDGERLKGTILIGADGLWSNVRKKVVGDGAPRVSGHTTYRSVIPTEDMPEDLRWNAATLWAGPKCHIVHYPLRGWKLFNLVVTYHNHAPSPEAGVPVSHEEVRKGFEHVAPVARQIIERGQDWKRWVLCDRDPVENWIDGRVVLLGDAAHPMMQYFAQGACMAMEDAVAISHVLGEEGGPLDEALARYQELRALRTARVQLQSREIGQHVYHPGGAHAALRNAVMRSKSPDDWYDIVSWLYGSTGLEGAVSA	104.1 ± 18.2	7.8 ± 0.4	80000	72.6 ± 10.1	5.7 ± 0.2	80000
		3HB6H from strain AD-3 (3-hydroxybenzoate 6-hydroxylase; AZF01_02545) (Martelella sp. AD-3; Q305P) (protein, full-length, N-terminal His6 tag (pET28a, EcoRI/HindIII), E. coli BL21(DE3), Ni-NTA; about 46 kDa by SDS-PAGE, 90 kDa by Native-PAGE (probable dimer); FAD-containing) MSNVANEADPILIAGGGIGGLAAAIGLANKGLKSLVLERAPKLGEIGAGIQLGPNAFHAFDYLGVGDAARAIAVYIDNLRLMDAIDGQEITRIPLDDAFRARFRNPYAVIHRGDLHGVFLKACEDHPLVSLRTNAEVVDYDQDENGVTAILKDGERLKGTILIGADGLWSNVRKKVVGDGAPRVSGHTTYRSVIPTEDMPEDLRWNAATLWAGPKCHIVHYPLRGWKLFNLVVTYHNHAPSPEAGVPVSHEEVRKGFEHVAPVARQIIERGQDWKRWVLCDRDPVENWIDGRVVLLGDAAHPMMPYFAQGACMAMEDAVAISHVLGEEGGPLDEALARYQELRALRTARVQLQSREIGQHVYHPGGAHAALRNAVMRSKSPDDWYDIVSWLYGSTGLEGAVSA	95.9 ± 23.2	1.6 ± 0.1	20000	91.3 ± 13.5	1.6 ± 0.1	20000
		3HB6H from strain AD-3 (3-hydroxybenzoate 6-hydroxylase; AZF01_02545) (Martelella sp. AD-3; Y221F) (protein, full-length, N-terminal His6 tag (pET28a, EcoRI/HindIII), E. coli BL21(DE3), Ni-NTA; about 46 kDa by SDS-PAGE, 90 kDa by Native-PAGE (probable dimer); FAD-containing) MSNVANEADPILIAGGGIGGLAAAIGLANKGLKSLVLERAPKLGEIGAGIQLGPNAFHAFDYLGVGDAARAIAVYIDNLRLMDAIDGQEITRIPLDDAFRARFRNPYAVIHRGDLHGVFLKACEDHPLVSLRTNAEVVDYDQDENGVTAILKDGERLKGTILIGADGLWSNVRKKVVGDGAPRVSGHTTYRSVIPTEDMPEDLRWNAATLWAGPKCHIVHFPLRGWKLFNLVVTYHNHAPSPEAGVPVSHEEVRKGFEHVAPVARQIIERGQDWKRWVLCDRDPVENWIDGRVVLLGDAAHPMMQYFAQGACMAMEDAVAISHVLGEEGGPLDEALARYQELRALRTARVQLQSREIGQHVYHPGGAHAALRNAVMRSKSPDDWYDIVSWLYGSTGLEGAVSA	86.7 ± 10.8	1 ± 0.1	10000	164.2 ± 14.0	1.7 ± 0.1	10000
		3HB6H from strain AD-3 (3-hydroxybenzoate 6-hydroxylase; AZF01_02545) (Martelella sp. AD-3; Y306H) (protein, full-length, N-terminal His6 tag (pET28a, EcoRI/HindIII), E. coli BL21(DE3), Ni-NTA; about 46 kDa by SDS-PAGE, 90 kDa by Native-PAGE (probable dimer); FAD-containing) MSNVANEADPILIAGGGIGGLAAAIGLANKGLKSLVLERAPKLGEIGAGIQLGPNAFHAFDYLGVGDAARAIAVYIDNLRLMDAIDGQEITRIPLDDAFRARFRNPYAVIHRGDLHGVFLKACEDHPLVSLRTNAEVVDYDQDENGVTAILKDGERLKGTILIGADGLWSNVRKKVVGDGAPRVSGHTTYRSVIPTEDMPEDLRWNAATLWAGPKCHIVHYPLRGWKLFNLVVTYHNHAPSPEAGVPVSHEEVRKGFEHVAPVARQIIERGQDWKRWVLCDRDPVENWIDGRVVLLGDAAHPMMQHFAQGACMAMEDAVAISHVLGEEGGPLDEALARYQELRALRTARVQLQSREIGQHVYHPGGAHAALRNAVMRSKSPDDWYDIVSWLYGSTGLEGAVSA	103.7 ± 13.6	1.6 ± 0.3		46.3 ± 6.9	1.5 ± 0.1	30000
		3HB6H from strain AD-3 (3-hydroxybenzoate 6-hydroxylase; AZF01_02545) (Martelella sp. AD-3; A308G) (protein, full-length, N-terminal His6 tag (pET28a, EcoRI/HindIII), E. coli BL21(DE3), Ni-NTA; about 46 kDa by SDS-PAGE, 90 kDa by Native-PAGE (probable dimer); FAD-containing) MSNVANEADPILIAGGGIGGLAAAIGLANKGLKSLVLERAPKLGEIGAGIQLGPNAFHAFDYLGVGDAARAIAVYIDNLRLMDAIDGQEITRIPLDDAFRARFRNPYAVIHRGDLHGVFLKACEDHPLVSLRTNAEVVDYDQDENGVTAILKDGERLKGTILIGADGLWSNVRKKVVGDGAPRVSGHTTYRSVIPTEDMPEDLRWNAATLWAGPKCHIVHYPLRGWKLFNLVVTYHNHAPSPEAGVPVSHEEVRKGFEHVAPVARQIIERGQDWKRWVLCDRDPVENWIDGRVVLLGDAAHPMMQYFGQGACMAMEDAVAISHVLGEEGGPLDEALARYQELRALRTARVQLQSREIGQHVYHPGGAHAALRNAVMRSKSPDDWYDIVSWLYGSTGLEGAVSA	33.7 ± 6.4	2 ± 0.1	60000	38.0 ± 10.1	2.3 ± 0.1	60000
